{
  "source": "paper doi:10.1101/2022.03.12.484092",
  "biological_target": "SARS-CoV-2 nucleocapsid N-terminal domain (NTD) (SARS-CoV-2, UniProt P0DTC9 41-174)",
  "experiment": "fluorescence intensity titration",
  "data": [
    {"binder": "UCUCUAAACG (ssRNA)", "note": "[10-mer RNA]", "values": [
      {"measurement": "binding result", "result": "binds"}
    ]}
  ]
}
